Laboratory results as given in US20180250395A1 (Janssen / Centocor, published 2018).
Like-named read-outs stand apart in the source and are kept apart here.

Columns and labels:
[1] = target: T1, human CD47 on Jurkat cells (human, UniProt Q08722 19-323); assay: MSD on Jurkat cells; blocks SIRP alpha-Fc binding
T1 construct: Endogenous CD47 of the cell lines; also called CD47-expressing Jurkat cells; CD47 on HL60 cells
Text: The ECL signal was plotted as a function of antibody concentrations, and EC₅₀ values were obtained from fitting the dose-response curves using non-linear regression model in GraphPad Prism.

[2] = target: T2, Cyno CD47 ECD protein, His-tagged, monomer (cyno); assay: ProteOn SPR; mAb captured, ECD monomer as analyte
T2 construct: extracellular domain; also called cynomolgus CD47
Experimental: (§1) Kinetic binding affinities to human CD47 and Cyno CD47 ECD proteins were determined by a Protein Interaction Array System (ProteOn). Briefly, mAbs were captured on the sensor chip via anti-IgG-Fc to reach surface density of 200-350 RU. […] The dissociation was monitored for 30 min. Data were fitted to 1:1 binding model.

[3] = target: T3, recombinant human CD47 extracellular domain (ECD), His-tagged, monomer (human, UniProt Q08722 19-141); assay: ProteOn SPR; mAb captured, ECD monomer as analyte
T3 construct: C-terminal 6xHis tag; monomeric fraction from Superdex 200; also called human CD47 ECD; CD47-ECD monomer
Experimental: as §1

[4] = target: T2, Cyno CD47 ECD protein, His-tagged, …; assay: ProteOn SPR; cyno KD / human KD
Experimental: as §1

[5] = target: T3, recombinant human CD47 extracellular …; assay: method not restated
[6] = target: T2, Cyno CD47 ECD protein, His-tagged, …; assay: ProteOn SPR; cyno KD / human KD; remark: listed apart in the source
[7] = target: T4, recombinant human CD47 extracellular domain (ECD), His-tagged, dimer (human, UniProt Q08722 19-141); assay: MSD; CD47-ECD dimer binding to captured SIRP alpha-Fc, mAb 10 µg/ml
T4 construct: Dimeric fraction of the same His-tagged ECD; also called His-tagged CD47-ECD dimer protein

[8] = target: T2, Cyno CD47 ECD protein, His-tagged, …; assay: ProteOn SPR; mAb captured, ECD monomer as analyte; remark: listed apart in the source
[9] = target: T3, recombinant human CD47 extracellular …; assay: ProteOn SPR; mAb captured, ECD monomer as analyte; remark: listed apart in the source
[10] = target: T1, human CD47 on Jurkat cells; assay: MSD on Jurkat cells; blocks SIRP alpha-Fc binding; remark: listed apart in the source
[11] = target: T3, recombinant human CD47 extracellular …; assay: ProteOn SPR
[12] = target: T2, Cyno CD47 ECD protein, His-tagged, …; assay: ProteOn SPR; mAb captured, ECD monomer as analyte; remark: listed apart in the source
[13] = target: T3, recombinant human CD47 extracellular …; assay: ProteOn SPR; mAb captured, ECD monomer as analyte; remark: listed apart in the source
[14] = target: T2, Cyno CD47 ECD protein, His-tagged, …; assay: ProteOn SPR; cyno KD / human KD; remark: listed apart in the source

Binder	EC50 [1] [µg/mL]	Kd [2] [nM]	Kd [3] [nM]	KD Ratio Cyno/Human [4]	Kd [5] [nM]	KD Ratio Cyno/Human [6]	% SIRP alpha Inhibition [7] [%]	Kd [8] [nM]	Kd [9] [nM]	EC50 [10] [µg/mL]	fold change of affinity against parent C47B116 [11] [fold]	Kd [12] [nM]	Kd [13] [nM]	KD Ratio Cyno/Human [14]
B6H12.2 (human IgG2sigma) (antibody, V domains shown, also called IgG2 Fc-silent B6H12.2; positive control anti-CD47 mAb) VH: EVKLVESGGDLVKPGGSLKLSCAASGFTFSGYGMSWVRQTPDKRLEWVATITSGGTYTYYPDSVKGRFTISRDNAKNTLYLQIDSLKSEDTAIYFCARSLAGNAMDYWGQGTSVTVSS VL: DIVMTQSPATLSVTPGDRVSLSCRASQTISDYLHWYQQKSHESPRLLIKFASQSISGIPSRFSGSGSGSDFTLSINSVEPEDVGVYYCQNGHGFPRTFGGGTKLEIK	0.21	0.572	0.539	1.1	–	–	–	–	–	–	–	–	–	–
C47B167 (antibody, V domains shown, isotype not restated) VH: EVQLVQSGAEVKKPGESLKISCKGSGYTFTSYWMQWVRQMPGKGLEWMGEINPSNGRTDYNEKFRGQVTISADKSISTAYLQWSSLKASDTAMYYCARQGGSGYGNSYGFFDVWGQGTTVTVSS VL: EIVLTQSPATLSLSPGERATLSCRASSSVSYMHWYQQKPGQAPRLLIYDTSRLASGIPARFSGSGSGTDFTLTISSLEPEDFAVYYCQQWRSNPYTFGGGTKVEIK	–	–	–	–	5.2	–	–	–	–	–	–	–	–	–
C47B91 (antibody, human IgG2, V domains shown, phage-derived; also called C47M91; parent C47B91) VH: EVQLVQSGAEVKKPGESLKISCKGSGYSFTSYWIGWVRQMPGKGLEWMGIIYPGDSDTRYSPSFQGQVTISADKSISTAYLQWSSLKASDTAMYYCARVGRFASHQLDYWGQGTLVTVSS VL: EIVLTQSPATLSLSPGERATLSCRASQSVNKALAWYQQKPGQAPRLLIYGASNRATGIPARFSGSGSGTDFTLTISSLEPEDFAVYYCQQGKGWPFTFGQGTKVEIK	0.06	24.5	15.6	1.6	–	3	82.6	17.8	5.95	–	–	–	–	–
C47B157 (human IgG2sigma) (antibody, V domains shown, HFA variant of C47B116; human IgG2sigma/kappa; also called IgG2 Fc-silent C47B157) VH: QVQLVQSGAEVKKPGASVKVSCKASGYTFTDYNMHWVRQAPGQGLEWMGDIYPYNGGTGYNQKFKGRVTMTRDTSTSTVYMELSSLRSEDTAVYYCARGGWHAMDSWGQGTLVTVSS VL: DIVMTQSPLSLPVTPGEPASISCRSRQSIVHTNRYTYLAWYLQKPGQSPQLLIYKVSNRFSGVPDRFSGSGSGTDFTLKISRVEAEDVGVYYCFQGSHVPYTFGGGTKLEIK	–	–	–	–	–	–	–	–	–	0.13	≤ 5	3.71	3.53	1.1
C47B116 (antibody, human IgG2, V domains shown, hybridoma-derived, chimeric human IgG2 Fc-silent/human kappa; also called parent hybridoma mAb C47B116) VH: EVQLQQSGPELVKPGASVKISCKASGYTFTDYNMHWVKQSHGKSLEWIGDIYPYNGGTGYNQKFKSKATLTVDNSSSTAYMELRSLTSEDSAVYYCARGGWHAMDSWGQGTSVTVSS VL: DVVMTQTPLSLPVSLGDQASISCRSRQSIVHTNRYTYLAWYLQKPGQSPKLLIYKVSNRFSGVPDRFSGSGSGTDFTLKISRVEAEDLGVYYCFQGSHVPYTFGGGTKLEIK	0.1	0.967	1.41	0.7	–	–	–	–	–	0.12	–	0.95	1.02	0.9
C47B161 (human IgG2sigma) (antibody, V domains shown, HFA variant of C47B116; human IgG2sigma/kappa; also called IgG2 Fc-silent C47B161) VH: QVQLVQSGAEVKKPGASVKVSCKASGYTFTDYNMHWVRQAPGQRLEWMGDIYPYNGGTGYNQKFKGRVTITRDTSASTAYMELSSLRSEDTAVYYCARGGWHAMDSWGQGTLVTVSS VL: DIVMTQSPLSLPVTPGEPASISCRSRQSIVHTNRYTYLAWYLQKPGQSPQLLIYKVSNRFSGVPDRFSGSGSGTDFTLKISRVEAEDVGVYYCFQGSHVPYTFGGGTKLEIK	–	–	–	–	–	–	–	–	–	0.06	≤ 5	2.96	2.87	1
